Measurements reported in paper PMC5961129.

Tests used:
[1] = target: T1, PUF-9R (human, engineered, UniProt Q14671 828-955+1028-1142+1028-1176, internal_change); assay: FP
[2] = target: PUF-10R (human, engineered, UniProt Q14671 828-955+992-1142+1028-1176, internal_change); assay: FP
[3] = target: PUF-8R N1080Y (human, UniProt Q14671 828-1176, N1080Y); assay: FP
[4] = target: PUF-8R H972Y (human, UniProt Q14671 828-1176, H972Y); assay: FP
[5] = target: PUF-8R (Pumilio1 PUF domain, wild type) (human, UniProt Q14671 828-1176); assay: FP
[6] = target: PUF-8R R1008Y (human, UniProt Q14671 828-1176, R1008Y); assay: FP
[7] = target: PUF-12R (human, engineered, UniProt Q14671 828-1027+992-1142+1028-1176, internal_change); assay: FP
[8] = target: T1, PUF-9R; assay: crystal structure

## AAUUGUUGUAUAUUC (ssRNA) [9nt-RNA]
[1]
  binding signal: ~12 fold Ka vs PUF-8R:RNA-8nt

## AAUUGUUGUAAUAUUC (ssRNA) [10nt-RNA]
[2]
  binding signal: ~7 fold Ka vs PUF-8R:RNA-8nt

## AAUUGUAUAUAUUC (ssRNA) [8nt-RNA]
[3]
  binding signal: > 8 fold Ka vs PUF-8R R1008N
[4]
  binding result: binds
[5]
  binding result: binds
[6]
  binding result: binds

## AAUUGUUGUAAUAUAUUC (ssRNA) [12nt-RNA]
[7]
  binding result: binds

## UGUUGUAUA (ssRNA) [RNA-9nt (crystal)]
[8]
  binding result: binds
